Experimental data published in patent publication US20230014722A1.

Target: cynomolgus PD-1 (Sino Biological), coated on plates (cynomolgus) (UniProt B0LAJ3)
Experiment: ELISA, plates coated with cynomolgus PD-1 at 1 µg/ml

cynomolgus PD-1 (Sino Biological), coated on plates (cynomolgus), sequence (B0LAJ3 entry or part of it limits assumed): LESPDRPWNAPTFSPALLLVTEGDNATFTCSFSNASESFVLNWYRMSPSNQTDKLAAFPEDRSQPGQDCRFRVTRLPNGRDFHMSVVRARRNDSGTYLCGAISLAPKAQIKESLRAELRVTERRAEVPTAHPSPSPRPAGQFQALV

Keytruda (antibody)
EC50: 0.23 nM
